Key:
[1] = target: cynomolgus monkey DLL4 extracellular domain (cynomolgus monkey); assay: Biacore SPR
[2] = target: cynomolgus monkey DLL4 extracellular domain (cynomolgus monkey); assay: binding ELISA
[3] = target: cynomolgus monkey DLL4 extracellular domain (cynomolgus monkey); assay: Biacore SPR; head says nM, kd/ka gives M

B1: h1A11.1 (antibody, V domains shown)
VH: EVQLVESGGGLVQPGGSLRLSCAASGFTFSNFPMAWVRQAPGKGLEWVATISSSDGTTYYRDSVKGRFTISRDNAKNSLYLQMNSLRAEDTAVYYCARGYYNSPFAYWGQGTLVTVSS
VL: DIQMTQSPSSLSASVGDRVTITCRASEDIYSNLAWYQQKPGKAPKLLIYDTNNLADGVPSRFSGSGSGTDFTLTISSLQPEDFATYYCQQYNNYPPTFGQGTKLEIKR
koff [1]: 0.00255 s⁻¹ | kon [1]: 144000 M⁻¹ s⁻¹ | EC50 [2]: 0.13 nM | Kd [3]: 18 nM
